± gives the uncertainty stated by the source.
Assay: abundance fitness (aPCA) (normalised: wild type 0, dead -1); higher = more abundant; growth selection in yeast, the domain comes from the species named
Conditions: Homo sapiens

**Q.** With “Lipoamide acyltransferase component of branched-chain alpha-keto acid dehydrogenase complex, mitochondrial E203V, P11182” as the substance, how does the abundance fitness read?
**A.** Its abundance fitness is -0.08 ± 0.042.

**Q.** Which abundance fitness does the source give for “Lipoamide acyltransferase component of branched-chain alpha-keto acid dehydrogenase complex, mitochondrial E210A, P11182” here?
**A.** Its abundance fitness is 0.021 ± 0.038.

**Q.** For “Lipoamide acyltransferase component of branched-chain alpha-keto acid dehydrogenase complex, mitochondrial E210C, P11182”, which abundance fitness is on record?
**A.** The abundance fitness was -0.048 ± 0.053.

**Q.** Which abundance fitness does the source give for “Lipoamide acyltransferase component of branched-chain alpha-keto acid dehydrogenase complex, mitochondrial E210D, P11182” here?
**A.** The abundance fitness was -0.006 ± 0.058.

**Q.** With “Lipoamide acyltransferase component of branched-chain alpha-keto acid dehydrogenase complex, mitochondrial E210F, P11182” as the substance, how does the abundance fitness read?
**A.** The abundance fitness was -0.24 ± 0.066.

**Q.** Which abundance fitness does the source give for “Lipoamide acyltransferase component of branched-chain alpha-keto acid dehydrogenase complex, mitochondrial E210H, P11182” here?
**A.** The abundance fitness was -0.319 ± 0.15.

**Q.** For “Lipoamide acyltransferase component of branched-chain alpha-keto acid dehydrogenase complex, mitochondrial E210I, P11182”, which abundance fitness is on record?
**A.** The abundance fitness was -0.239 ± 0.055.

**Q.** Which abundance fitness does the source give for “Lipoamide acyltransferase component of branched-chain alpha-keto acid dehydrogenase complex, mitochondrial E210K, P11182” here?
**A.** Its abundance fitness is 0.034 ± 0.072.

**Q.** For “Lipoamide acyltransferase component of branched-chain alpha-keto acid dehydrogenase complex, mitochondrial E210L, P11182”, which abundance fitness is on record?
**A.** The abundance fitness was -0.133 ± 0.041.

**Q.** Which abundance fitness does the source give for “Lipoamide acyltransferase component of branched-chain alpha-keto acid dehydrogenase complex, mitochondrial E210M, P11182” here?
**A.** The abundance fitness was -0.109 ± 0.044.

**Q.** With “Lipoamide acyltransferase component of branched-chain alpha-keto acid dehydrogenase complex, mitochondrial E210N, P11182” as the substance, how does the abundance fitness read?
**A.** Its abundance fitness is -0.061 ± 0.08.

**Q.** With “Lipoamide acyltransferase component of branched-chain alpha-keto acid dehydrogenase complex, mitochondrial E210P, P11182” as the substance, how does the abundance fitness read?
**A.** Its abundance fitness is -0.081 ± 0.056.

**Q.** For “Lipoamide acyltransferase component of branched-chain alpha-keto acid dehydrogenase complex, mitochondrial E210Q, P11182”, which abundance fitness is on record?
**A.** Its abundance fitness is -0.042 ± 0.053.

**Q.** Which abundance fitness does the source give for “Lipoamide acyltransferase component of branched-chain alpha-keto acid dehydrogenase complex, mitochondrial E210R, P11182” here?
**A.** Its abundance fitness is 0.008 ± 0.039.

**Q.** For “Lipoamide acyltransferase component of branched-chain alpha-keto acid dehydrogenase complex, mitochondrial E210S, P11182”, which abundance fitness is on record?
**A.** The abundance fitness was -0.019 ± 0.042.

**Q.** For “Lipoamide acyltransferase component of branched-chain alpha-keto acid dehydrogenase complex, mitochondrial E210T, P11182”, which abundance fitness is on record?
**A.** Its abundance fitness is -0.041 ± 0.056.

**Q.** Which abundance fitness does the source give for “Lipoamide acyltransferase component of branched-chain alpha-keto acid dehydrogenase complex, mitochondrial G193A, P11182” here?
**A.** The abundance fitness was -0.199 ± 0.039.

**Q.** Which abundance fitness does the source give for “Lipoamide acyltransferase component of branched-chain alpha-keto acid dehydrogenase complex, mitochondrial G193C, P11182” here?
**A.** The abundance fitness was -0.647 ± 0.059.

**Q.** With “Lipoamide acyltransferase component of branched-chain alpha-keto acid dehydrogenase complex, mitochondrial G193D, P11182” as the substance, how does the abundance fitness read?
**A.** The abundance fitness was -0.773 ± 0.088.

**Q.** For “Lipoamide acyltransferase component of branched-chain alpha-keto acid dehydrogenase complex, mitochondrial G193E, P11182”, which abundance fitness is on record?
**A.** Its abundance fitness is -0.706 ± 0.067.

**Q.** For “Lipoamide acyltransferase component of branched-chain alpha-keto acid dehydrogenase complex, mitochondrial G193H, P11182”, which abundance fitness is on record?
**A.** The abundance fitness was -0.908 ± 0.2.

**Q.** Which abundance fitness does the source give for “Lipoamide acyltransferase component of branched-chain alpha-keto acid dehydrogenase complex, mitochondrial G193I, P11182” here?
**A.** The abundance fitness was -0.951 ± 0.12.

**Q.** For “Lipoamide acyltransferase component of branched-chain alpha-keto acid dehydrogenase complex, mitochondrial G193K, P11182”, which abundance fitness is on record?
**A.** Its abundance fitness is -0.732 ± 0.057.

**Q.** With “Lipoamide acyltransferase component of branched-chain alpha-keto acid dehydrogenase complex, mitochondrial G193L, P11182” as the substance, how does the abundance fitness read?
**A.** The abundance fitness was -0.863 ± 0.061.

**Q.** With “Lipoamide acyltransferase component of branched-chain alpha-keto acid dehydrogenase complex, mitochondrial G193M, P11182” as the substance, how does the abundance fitness read?
**A.** Its abundance fitness is -0.694 ± 0.073.

**Q.** With “Lipoamide acyltransferase component of branched-chain alpha-keto acid dehydrogenase complex, mitochondrial G193P, P11182” as the substance, how does the abundance fitness read?
**A.** Its abundance fitness is -0.08 ± 0.051.

**Q.** Which abundance fitness does the source give for “Lipoamide acyltransferase component of branched-chain alpha-keto acid dehydrogenase complex, mitochondrial G193Q, P11182” here?
**A.** The abundance fitness was -0.573 ± 0.061.

**Q.** For “Lipoamide acyltransferase component of branched-chain alpha-keto acid dehydrogenase complex, mitochondrial G193R, P11182”, which abundance fitness is on record?
**A.** Its abundance fitness is -0.692 ± 0.04.

**Q.** With “Lipoamide acyltransferase component of branched-chain alpha-keto acid dehydrogenase complex, mitochondrial G193S, P11182” as the substance, how does the abundance fitness read?
**A.** Its abundance fitness is -0.308 ± 0.056.

**Q.** With “Lipoamide acyltransferase component of branched-chain alpha-keto acid dehydrogenase complex, mitochondrial G193T, P11182” as the substance, how does the abundance fitness read?
**A.** Its abundance fitness is -0.476 ± 0.047.

**Q.** For “Lipoamide acyltransferase component of branched-chain alpha-keto acid dehydrogenase complex, mitochondrial G193V, P11182”, which abundance fitness is on record?
**A.** The abundance fitness was -0.814 ± 0.05.

**Q.** Which abundance fitness does the source give for “Lipoamide acyltransferase component of branched-chain alpha-keto acid dehydrogenase complex, mitochondrial G193W, P11182” here?
**A.** Its abundance fitness is -1.06 ± 0.18.

**Q.** Which abundance fitness does the source give for “Lipoamide acyltransferase component of branched-chain alpha-keto acid dehydrogenase complex, mitochondrial G193Y, P11182” here?
**A.** The abundance fitness was -1.02 ± 0.26.

**Q.** With “Lipoamide acyltransferase component of branched-chain alpha-keto acid dehydrogenase complex, mitochondrial G195A, P11182” as the substance, how does the abundance fitness read?
**A.** Its abundance fitness is -0.464 ± 0.044.

**Q.** Which abundance fitness does the source give for “Lipoamide acyltransferase component of branched-chain alpha-keto acid dehydrogenase complex, mitochondrial G195D, P11182” here?
**A.** The abundance fitness was -0.516 ± 0.12.

Source: the Human Domainome abundance scans (Beltran et al. 2025)
